Publication PMC12462935, “TRIM21‐Mediated K11‐Linked Ubiquitination of ID1 Suppresses Tumorigenesis and Promotes Cuproptosis in Esophageal Squamous Cell Carcinoma” (Advanced Science, 2025)

Molecular target: T1, TRIM21-His protein (UniProt P19474 1-475)
T1 construct: TRIM21-His protein, Sino Biological 18010-H07B; also called recombinant TRIM21; source: bought: Sino Biological (18010-H07B)
Test: pull-down; TRIM21-His incubated with GST-ID1 or GST at a 3:1 molar ratio in lysis buffer; captured with anti-GST antibody at 4 °C overnight, then Protein A/G beads 4 h; immunoblot
Conditions: both partners purified

B1: GST-ID1 (natural protein, UniProt P41134 1-155, looked up)
chain: MKVASGSTATAAAGPSCALKAGKTASGAGEVVRCLSEQSVAISRCAGGAGARLPALLDEQQVNVLLYDMNGCYSRLKELVPTLPQNRKVSKVEILQHVIDYIRDLQLELNSESEVGTPGGRGLPVRAPLSTLNGEISALTAEAACVPADDRILCR
notes: also called recombinant ID1; source: cloned into pGEX-6p-2 with a GST tag and purified
B1: binds.
